We go through one protein from paper PMC10420310, “The Complex Proteolipidic Behavior of the SARS-CoV-2 Envelope Protein Channel: Weak Selectivity and Heterogeneous Oligomerization” (International Journal of Molecular Sciences, 2023).

The data set deals with the molecule itself. Put plainly: AUC; sedimentation velocity, E-TM at DPR 25 (lowest DPR tested) in 5 mM C14SB micelles, 50 mM Tris-HCl pH 7.3, 100 mM NaCl, 29.4% D2O, 20 °C, 50,000 rpm.

B1: transmembrane domain of SARS-2 E corresponding to residues 7–38 (E-TM) (peptide)
chain: EETGTLIVNSVLLFLAFVVFLLVTLAILTALR
notes: SARS-CoV-2 envelope (E) protein, transmembrane domain, residues 7-38; monomer 3490 Da; also called E-TM 7–38
Usually stoichiometry N stands for a count of units in the complex or per binding partner. For B1, the “stoichiometry N” value is roughly 3.3.
